Among the targets are FFL_001_surf4; FFL_001_surf2; FFL_001_surf1.
Common to all, as to experiment: SPR
Background: In SPR one partner is held on a chip, and binding of the other changes the refractive index at the surface.

In a further assay the target is T1, FFL_001 (synthetic construct (designed scaffold)).
T1 chain: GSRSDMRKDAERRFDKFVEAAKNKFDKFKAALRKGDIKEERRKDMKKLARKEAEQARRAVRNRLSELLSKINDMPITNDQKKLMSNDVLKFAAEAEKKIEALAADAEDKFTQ

As a reminder, the Kd is the concentration at which binding is half-saturated. High values mean a looser complex, low ones a tighter complex. The koff is the first-order rate constant of dissociation. A low value points to a long-lived complex. As a reminder, the kon is a measure of how fast the partners come together. Low values mean slow association, high ones fast association.

For motavizumab Fab, the results for the Kd in the assay with FFL_001_surf4, with FFL_001_surf2 and in the assay with FFL_001_surf1 were 0.0329 nM, 0.0296 nM and 0.00632 nM, respectively. For the same molecule, the koff in the assay with FFL_001_surf4 and with FFL_001_surf2 was 0.000158 s⁻¹ each time. Besides, the kon with FFL_001_surf2 was determined as 5.32e+06 M⁻¹ s⁻¹; with FFL_001_surf1, 7.43e+06 M⁻¹ s⁻¹.

B1: 17-HD9 IgG (antibody, V domains shown)
VH: QVQLQESGPGLVKPSETLSLTCVVSGGSFSSYYWTWIRQSPGKGLEWIGEMNGNSGYTNYNPSLQSRVTISKDASKNQFSLKLTSLTAADTAVYYCARDAIVMVFTDMRGRVDVWGPGILVTVSS
VL: DIQMSQSPSSLSASVGDTVTITCRASQGISNYLAWYQQKPGKAPKSLIYYTSHLESGVPSRFSGSGSGTDFSLTISSLQPEDFATYYCQQHNSYPRTFGQGTKVEIK
Molecule B1 came in with a Kd in the assay with FFL_001 of approximately 0.003 nM.

Source of the values: PMC4260937 (Nature, 2014).
